From publication PMC12238353 (Scientific Reports, 2025) come the findings set out here.

In assay [1] the target is His-tagged IgD (SpyTagged HAPPID1: human anti-Phl p 7 IgD 102.1F10 with SpyTag003 and His6-tag on the heavy chain) (human) (UniProt P01880). The assay can be described thus: SPR; His-tagged IgD (100 nM) captured on an anti-His chip (CM5); two-fold dilution series of TEV-cleaved Nbs, 200 nM to 1.6 nM, flowed over; Biacore T200, 25 °C, 10 mM HEPES pH 7.4, 150 mM NaCl, 0.05% P20; koff from mono- or biphasic decay, kon from kobs against concentration, KD = koff/kon. On the technique in general: In SPR one partner is held on a chip, and binding of the other changes the refractive index at the surface.

In assay [2] the target is IgD on Namalwa B cells (membrane-bound IgD) (human (endogenous in Namalwa)) (UniProt P01880). The assay can be described thus: flow cytometry on cells; Namalwa cells incubated with 1 µM AF488-labeled Nb:Catcher fusion in PBS pH 7.3, 1% BSA, 0.1% NaN3, 1 h at 4 °C (1 µM, 500 nM and 250 nM for titration); median fluorescence intensity. For orientation: A flow cytometer gives signals particle by particle.

The target of assay [3] is IgD-Fc (Fc region of human IgD, SpyTagged) (human). In words: SEC; complexes of Nb and IgD-Fc with IgD-Fc at 2 µM, incubated overnight at 4 °C; Superdex 200 Increase 10/300 GL in HBS-az at 10 °C. For orientation: Size exclusion chromatography separates by hydrodynamic size, large species first.
Assay [4] concerns the target T1, Phl p 7 (antigen of HAPPID1) on an SA chip (Phleum pratense (common timothy), UniProt O82040).
T1 construct: Held on a streptavidin chip; also called SA-Phl p 7 chip
The assay can be described thus: SPR; IgD (HAPPID1) captured by its antigen Phl p 7 on an SA chip; 25 nM aδNb408 or aδNb408-Nb pairs flowed over; 25 °C, running buffer with 5 mM CaCl2. The settings on record: both partners purified.

IgD on Namalwa B cells (membrane-bound IgD) (human (endogenous in Namalwa)), sequence (P01880 whole entry, looked up, the tested form may be a part): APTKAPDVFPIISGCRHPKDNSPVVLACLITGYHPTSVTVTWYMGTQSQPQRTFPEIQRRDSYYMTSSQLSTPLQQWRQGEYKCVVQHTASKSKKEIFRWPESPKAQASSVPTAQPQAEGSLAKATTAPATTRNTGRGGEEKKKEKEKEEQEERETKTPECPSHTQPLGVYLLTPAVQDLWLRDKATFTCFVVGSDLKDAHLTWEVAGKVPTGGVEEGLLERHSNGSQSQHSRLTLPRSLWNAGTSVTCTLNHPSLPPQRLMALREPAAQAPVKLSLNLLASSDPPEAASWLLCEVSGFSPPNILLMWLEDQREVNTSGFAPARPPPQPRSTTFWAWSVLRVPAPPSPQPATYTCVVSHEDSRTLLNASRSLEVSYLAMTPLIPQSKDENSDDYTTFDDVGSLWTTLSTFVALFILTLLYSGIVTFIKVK
T1 sequence (O82040 whole entry): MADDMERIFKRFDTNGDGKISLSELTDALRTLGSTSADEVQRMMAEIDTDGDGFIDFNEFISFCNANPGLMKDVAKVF

B1: anti-IgD Nb 408 (aδNb408), TEV-cleaved (VHH)
VHH: QVQLQESGGGLVQAGDSLRLSCVASGRSISNDAMAWFRQAPGKEREFVAAITWRYSNTHYSDSVKDRFTISRDNAKNTVYLQMNSLKPEDTADYYCAADRRGTGASSYSRDYDYWGQGTQVTVSS
Turning to B1, in assay [1], the KD1 was 0.89 nM, the KD2 stood at 5.2 nM, the koff1 worked out at 0.00074 s⁻¹ and the koff2 was found to be 0.0043 s⁻¹. For the same molecule, in assay [1], the on-rate (kon) (as a rule, the rate constant with which the complex forms) amounted to 820000 M⁻¹ s⁻¹.

B2: AF488-labeled monovalent aδNb408 (SpyTagged aδNb408 reacted with AF488-labeled SpyCatcher003) (VHH)
VHH: QVQLQESGGGLVQAGDSLRLSCVASGRSISNDAMAWFRQAPGKEREFVAAITWRYSNTHYSDSVKDRFTISRDNAKNTVYLQMNSLKPEDTADYYCAADRRGTGASSYSRDYDYWGQGTQVTVSS
On to B2, for which, in assay [2], the MFI came out at 1340.

B3: His-tagged anti-IgD Nb 408 (aδNb408) (VHH)
VHH: QVQLQESGGGLVQAGDSLRLSCVASGRSISNDAMAWFRQAPGKEREFVAAITWRYSNTHYSDSVKDRFTISRDNAKNTVYLQMNSLKPEDTADYYCAADRRGTGASSYSRDYDYWGQGTQVTVSS
B3: in assay [3], the stoichiometry N – broadly, a count of units in the complex or per binding partner – was 2 Nb:IgD.

B4: human anti-Phl p 7 IgD 102.1F10 (HAPPID1) (antibody, V domains shown)
VH: QVQLVQSGAEVRNPGASVKVSCKASGYTFTSYAIHWVRQAPGHRLEWVGRINTDNGNTKYSQKFHGRVALSRDTSASTTYMDLSSLNSEDTAVYYCARAFYYSSGVMFDSWGQGALVTVSS
VL: QSALTQPPSVSGAPGQRVSISCTGGSSNFGAGYDVHWYQQLPATAPKLLIYGNNNRPSGVPDRFSGSKSGTSASLAITGLQAEDEGDYFCQSFDTSLSGWIFGGGTKLTVL
notes: heavy-chain variable domain of the human anti-Phl p 7 antibody 102.1F10; pVITRO1-HAPPID1 at Addgene; human immunoglobulin heavy constant delta, secreted form; UniProt P01880-1 is printed for the IgD-Fc used in this study; light chain of 102.1F10; also called full-length IgD; source: stably transfected FreeStyle 293-F cells; copies: 2 + 2
As to B4, the binding result in assay [4] is recorded as “binds”.

B5: anti-IgD Nb 571 (aδNb571), TEV-cleaved (VHH)
VHH: QVQLQESGGGLVQPGGSLRLSCAASGTPFSASVMAWYRQAPGKERVWVATITSDSMTYYADSVNGRFTISRDNAKSTVYLQMNSLKPEDTAAYICRHAASASWGQGTQVTVSS
As to B5, in assay [1], the dissociation constant Kd (usually the concentration at which binding is half-saturated) came to 0.66 nM; the koff – broadly, a measure of how fast the partners let go of each other – came out at 0.0012 s⁻¹; the kon worked out at 1.8e+06 M⁻¹ s⁻¹.

B6: His-tagged anti-IgD Nb 571 (aδNb571) (VHH)
VHH: QVQLQESGGGLVQPGGSLRLSCAASGTPFSASVMAWYRQAPGKERVWVATITSDSMTYYADSVNGRFTISRDNAKSTVYLQMNSLKPEDTAAYICRHAASASWGQGTQVTVSS
In the case of B6, the stoichiometry N in assay [3] was 1 Nb:IgD.

B7: AF488-labeled monovalent aδNb571 (SpyTagged aδNb571 reacted with AF488-labeled SpyCatcher003) (VHH)
VHH: QVQLQESGGGLVQPGGSLRLSCAASGTPFSASVMAWYRQAPGKERVWVATITSDSMTYYADSVNGRFTISRDNAKSTVYLQMNSLKPEDTAAYICRHAASASWGQGTQVTVSS
Molecule B7 yielded an MFI in assay [2] of 921.

B8: anti-IgD Nb 107 (aδNb107), TEV-cleaved (VHH)
VHH: QVQLQESGGGLVQAGASLRLSCTASERTFSPYAMGWFRQAPGREREVIASIFWTGGNTGYADSVKGRFTISRDTAKNTVYLQMSNLKPEDTAVYYCGARTSASAPIYGLWGQGTQVTVSS
Regarding B8, in assay [1], the KD1 is 3.2 nM, the KD2 came to 22 nM, the koff1 stood at 0.00066 s⁻¹ and the koff2 was 0.0046 s⁻¹. This molecule also yielded a kon in assay [1] of 210000 M⁻¹ s⁻¹.

B9: AF488-labeled monovalent aδNb107 (SpyTagged aδNb107 reacted with AF488-labeled SpyCatcher003) (VHH)
VHH: QVQLQESGGGLVQAGASLRLSCTASERTFSPYAMGWFRQAPGREREVIASIFWTGGNTGYADSVKGRFTISRDTAKNTVYLQMSNLKPEDTAVYYCGARTSASAPIYGLWGQGTQVTVSS
In assay [2], B9 displayed an MFI of 662.

B10: His-tagged anti-IgD Nb 107 (aδNb107) (VHH)
VHH: QVQLQESGGGLVQAGASLRLSCTASERTFSPYAMGWFRQAPGREREVIASIFWTGGNTGYADSVKGRFTISRDTAKNTVYLQMSNLKPEDTAVYYCGARTSASAPIYGLWGQGTQVTVSS
As to B10, the stoichiometry N in assay [3] is 2 Nb:IgD.

B11: His-tagged anti-IgD Nb 367 (aδNb367) (VHH)
VHH: QVQLQESGGGLVQPGGSLRLACAASGFSLSTYTMSWVRQSPGKGLEWVSTITSDGGWTSYRDSVKGRFTISRDNAKNTLYLQMNSLNPEDTAVYYCRRGVGVVRGERPGGQGTQVTVSS
With B11, the stoichiometry N in assay [3] was 2 Nb:IgD.

B12: anti-IgD Nb 367 (aδNb367), TEV-cleaved (VHH)
VHH: QVQLQESGGGLVQPGGSLRLACAASGFSLSTYTMSWVRQSPGKGLEWVSTITSDGGWTSYRDSVKGRFTISRDNAKNTLYLQMNSLNPEDTAVYYCRRGVGVVRGERPGGQGTQVTVSS
In assay [1], B12 returned a dissociation constant Kd of 2.4 nM, an off-rate constant (koff) of 0.00047 s⁻¹ and a kon of 200000 M⁻¹ s⁻¹.

B13: AF488-labeled monovalent aδNb367 (SpyTagged aδNb367 reacted with AF488-labeled SpyCatcher003) (VHH)
VHH: QVQLQESGGGLVQPGGSLRLACAASGFSLSTYTMSWVRQSPGKGLEWVSTITSDGGWTSYRDSVKGRFTISRDNAKNTLYLQMNSLNPEDTAVYYCRRGVGVVRGERPGGQGTQVTVSS
Consider B13, for which, in assay [2], the MFI came out at 1450.
